This passage reports ratio to parent results from article PMC7289447.

Where a chain is given by its changes, count along the chain named. Numbers in names are those of the source.

One test addresses T1, Hsc20 M51Bpa, P53193.
T1 chain: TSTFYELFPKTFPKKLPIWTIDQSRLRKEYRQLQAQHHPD
In words: site-specific Bpa photo-crosslinking, SDS-PAGE band quantification. Conditions: chain shown with the change; in the presence of ATP; UV irradiation; parent: est. 1.0; read off a plot.

Another test addresses T2, Hsc20 Q46Bpa, P53193.
T2 chain: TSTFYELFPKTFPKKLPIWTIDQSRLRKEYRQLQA
The description is as above. The following applies: chain shown with the change; in the presence of ATP; UV irradiation; parent: est. 1.0; read off a plot.

B1: Ssq1 wild-type D246A; E253A (protein)
chain: MLKSGRLNFLKLNINSRLLYSTNPQLTKKVIGIDLGTTNSAVAYIRDSNDKKSATIIENDEGQRTTPSIVAFDVKSSPQNKDQMKTLVGMAAKRQNAINSENTFFATKRLIGRAFNDKEVQRDMAVMPYKIVKCESNGQAYLSTSNGLIQSPSQIASILLKYLKQTSEEYLGEKVNLAVITVPAYFNDSQRQATKDAGKLAGLNVLRVINEPTAAALSFGIDDKRNNGLIAVYDLGGGTFDISILAIEDGVFAVRATNGDTHLGGEDFDNVIVNYIIDTFIHENPEITREEITKNRETMQRLKDVSERAKIDLSHVKKTFIELPFVYKSKHLRVPMTEEELDNMTLSLINRTIPPVKQALKDADIEPEDIDEVILVGGMTRMPKIRSVVKDLFGKSPNSSVNPDETVALGAAIQGGILSGEIKNVLLLDVTPLTLGIETFGGAFSPLIPRNTTVPVKKTEIFSTGVDGQAGVDIKVFQGERGLVRNNKLIGDLKLTGITPLPKGIPQIYVTFDIDADGIINVSAAEKSSGKQQSITVIPNSGLSEEEIAKLIEEANANRAQDNLIRQRLELISKADIMISDTENLFKRYEKLISSEKEYSNIVEDIKALRQAIKNFKANENDMSIDVNGIKKATDALQGRALKLFQSATKNQQNQGK
Consider B1, for which the ratio to parent stood at 0.11 in the test with Hsc20 M51Bpa, P53193 and 0.22 in the test with Hsc20 Q46Bpa, P53193.

B2: Ssq1 wild-type E248A; D249A (protein)
chain: B1 chain with A246D, E248A, D249A, A253E
On to B2, for which the ratio to parent with Hsc20 M51Bpa, P53193 amounted to 0.22; in the test with Hsc20 Q46Bpa, P53193 it was 0.28.
